Laboratory results taken from patent US20050176123A1, “Protease inhibitor” (Morinaga Milk Industry Co., Ltd., priority 2002, published 2005).

Columns and labels:
Experiment in all cases: cysteine protease inhibitory activity (Z-Phe-Arg-MCA fluorescence, method of Barrett et al.)
Format in all cases: biochemical
[1] = target: T1, cathepsin B (Homo sapiens, UniProt P07858)
T1 construct: purchased Wako Pure Chemical Industries, Ltd
Method: (§1) Inhibitory activities against cysteine proteases including papain, cathepsin B, cathepsin L and cathepsin S (these proteases are available from Wako Pure Chemical Industries, Ltd.) were determined using commercially available bovine lactoferrin (manufactured by Morinaga Milk Industry Co., Ltd.) as a test sample. The inhibitory activity was measured with reference to the method by Barrett et al. (“Methods in Enzymology,” Vol. 80, p 535-561, 1981) as described below. Namely, Z-Phe-Arg-MCA (final concentration of […]: manufactured by Peptide Institute, Inc.) was added as a substrate to 0.1 M acetic acid buffer solution (pH 5.5) in which sample was dissolved at each concentration. Then, cysteine protease (a protease selected from papain, cathepsin B, cathepsin L and cathepsin S in the present test: manufactured by Wako Pure Chemical Industries, Ltd.) solution (final concentration: 15 units/ml) was added, the whole solution was mixed and the reaction was carried out at 37° C. for 10 minutes. Subsequently, fluorescence intensity (excitation wavelength: 370 nm, emission wavelength: 460 nm) of AMC (7-Amino-4-Methyl-Coumarin) released from the digested substrate was measured with a fluorescence spectrometer (manufactured by Hitachi, Ltd.).

[2] = target: T2, cathepsin L (Homo sapiens, UniProt P07711)
T2 construct: purchased Wako Pure Chemical Industries, Ltd
T2 sequence (P07711 114-333, species assumed): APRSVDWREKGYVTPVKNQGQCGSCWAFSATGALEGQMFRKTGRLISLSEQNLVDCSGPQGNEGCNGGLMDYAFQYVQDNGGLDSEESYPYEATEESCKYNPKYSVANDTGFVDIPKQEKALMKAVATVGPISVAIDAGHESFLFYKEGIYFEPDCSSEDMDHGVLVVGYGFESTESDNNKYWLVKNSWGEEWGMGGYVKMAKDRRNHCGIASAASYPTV
Method: as §1

[3] = target: T3, papain (Carica papaya, UniProt P00784); conditions: pH 5.5, 37° C., 10 minutes
T3 construct: purchased Wako Pure Chemical Industries, Ltd
T3 sequence (P00784 134-345): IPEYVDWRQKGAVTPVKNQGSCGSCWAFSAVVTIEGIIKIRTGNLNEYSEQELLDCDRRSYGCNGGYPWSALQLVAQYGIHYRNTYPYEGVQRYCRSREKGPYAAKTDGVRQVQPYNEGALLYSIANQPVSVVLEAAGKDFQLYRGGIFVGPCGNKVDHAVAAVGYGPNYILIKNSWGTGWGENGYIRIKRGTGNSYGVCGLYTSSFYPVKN
Method: as §1

[4] = inhibitor 10^−3 M, pH 5.5, 37° C., 10 minutes

Substance | cysteine protease-inhibitory activity compared with human lactoferrin peptide Y679-K695 ([1]; similar test to Test Example 5) | cysteine protease-inhibitory activity compared with human lactoferrin peptide Y679-K695 ([2]; similar test to Test Example 5) | inhibition of cysteine protease activity [1, 4] [%] | inhibition of cysteine protease activity [2, 4] | inhibition rate at each concentration (%) ([2]; inhibitor 10^−4M, pH 5.5, 37° C., 10 minutes) | inhibition of cysteine protease activity ([3]; inhibitor 10^−3 M) | inhibition rate at each concentration (%) ([3]; inhibitor 10^−4M)
bovine lactoferrin peptide Y676-K692: peptide having amino acid numbers 676-692 of SEQ ID No. 2 (bovine lactoferrin), chemically synthesized (YEEYLGTEYVTAIANLK; sig_peptide (1)...(19) Lactoferrin; listed as Bos taurus) | almost equal to the human lactoferrin peptide Y679-K695 | almost equal to the human lactoferrin peptide Y679-K695 |  |  |  |  | 
human lactoferrin peptide Y679-K695: peptide having amino acid numbers 679-695 of SEQ ID No. 1 (human lactoferrin), chemically synthesized (YEKYLGPQYVAGITNLK; sig_peptide (1)...(19) Lactoferrin; listed as Homo Sapiens) |  |  | ~60 | almost completely inhibited | more than 50% | almost completely inhibited | more than 50%
